The text below walks through data of article PMC4920195, “Non-Smc element 5 (Nse5) of the Smc5/6 complex interacts with SUMO pathway components” (Biology Open, 2016).

Holding throughout (test): two-hybrid; LexA bait and B42 activating domain prey, galactose-induced; liquid culture, quantitative beta-galactosidase activity of permeabilized cells with reporter pSH18034, wild-type cells (JC470)
The target in experiment [1] is Nse5-ts2-LexA (S. cerevisiae) (UniProt Q03718).
Experiment [2] deals with T1, Nse5-LexA (wild type) (S. cerevisiae, UniProt Q03718 1-556).
T1 construct: Nse5 of Saccharomyces cerevisiae, NSE5 gene cloned into a pEG202-derived bait plasmid; also called Non-Smc element 5; J-038; source: yeast two-hybrid fusion, galactose-inducible promoter, in S. cerevisiae
T1 sequence (looked up): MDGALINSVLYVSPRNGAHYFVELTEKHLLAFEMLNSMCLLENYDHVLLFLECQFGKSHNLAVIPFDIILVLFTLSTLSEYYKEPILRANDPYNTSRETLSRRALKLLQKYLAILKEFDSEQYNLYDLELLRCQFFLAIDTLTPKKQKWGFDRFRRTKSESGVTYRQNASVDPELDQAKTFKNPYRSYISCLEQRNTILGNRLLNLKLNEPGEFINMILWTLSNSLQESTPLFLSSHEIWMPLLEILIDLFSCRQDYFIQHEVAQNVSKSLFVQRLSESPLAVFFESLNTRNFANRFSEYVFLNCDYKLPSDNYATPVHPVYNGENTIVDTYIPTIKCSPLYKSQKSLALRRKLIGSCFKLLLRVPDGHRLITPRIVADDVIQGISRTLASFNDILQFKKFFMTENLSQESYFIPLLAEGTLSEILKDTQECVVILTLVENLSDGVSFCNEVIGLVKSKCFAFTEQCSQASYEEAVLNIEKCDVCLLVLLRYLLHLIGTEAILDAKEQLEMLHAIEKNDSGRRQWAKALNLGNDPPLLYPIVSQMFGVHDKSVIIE
Particulars: partners not purified.

For experiment [3], the target named is T2, Nse5-H319Y-LexA (S. cerevisiae, UniProt Q03718 1-556, H319Y).
T2 construct: Nse5 of Saccharomyces cerevisiae, point mutant; also called J-120; source: yeast two-hybrid fusion, galactose-inducible promoter, in S. cerevisiae
T2 sequence (looked up): T1 sequence (looked up) with H319Y
Particulars: partners not purified.

In experiment [4] the target is T3, Nse5-Y123H-LexA (S. cerevisiae, UniProt Q03718 1-556, Y123H).
T3 construct: Nse5 of Saccharomyces cerevisiae, point mutant; also called J-131; source: yeast two-hybrid fusion, galactose-inducible promoter, in S. cerevisiae
T3 sequence (looked up): T1 sequence (looked up) with Y123H
Conditions: partners not purified.

Experiment [5] deals with T4, Nse5-Y111H-LexA (S. cerevisiae, UniProt Q03718 1-556, Y111H).
T4 construct: Nse5 of Saccharomyces cerevisiae, point mutant; also called J-132; source: yeast two-hybrid fusion, galactose-inducible promoter, in S. cerevisiae
T4 sequence (looked up): T1 sequence (looked up) with Y111H
Particulars: partners not purified.

Where a chain is given by its changes, count along the chain named.

Nse6-AD (natural protein): the two-hybrid signal as percent of wild-type Nse5 in experiment [1] was 63%.

B1: Ubc9-AD (wild type) (enzyme, S. cerevisiae, UniProt P50623 1-157, looked up)
chain: MSSLCLQRLQEERKKWRKDHPFGFYAKPVKKADGSMDLQKWEAGIPGKEGTNWAGGVYPITVEYPNEYPSKPPKVKFPAGFYHPNVYPSGTICLSILNEDQDWRPAITLKQIVLGVQDLLDSPNPNSPAQEPAWRSFSRNKAEYDKKVLLQAKQYSK
notes: Ubc9 of Saccharomyces cerevisiae, UBC9 cloned into a pJG4-6-derived prey vector; also called E2 conjugating enzyme; J-042; source: yeast two-hybrid fusion, galactose-inducible promoter, in S. cerevisiae
For the molecule B1, the “two-hybrid signal as fold of the interactions with Siz1 and Siz2” value in experiment [2] was approximately 5 fold.

B2: Smt3-AD (natural protein, S. cerevisiae, UniProt Q12306 1-101, looked up)
chain: MSDSEVNQEAKPEVKPEVKPETHINLKVSDGSSEIFFKIKKTTPLRRLMEAFAKRQGKEMDSLRFLYDGIRIQADQTPEDLDMEDNDIIEAHREQIGGATY
notes: Smt3 (SUMO) of Saccharomyces cerevisiae, SMT3 cloned into a pJG4-6-derived prey vector; also called SUMO; J-043; source: yeast two-hybrid fusion, galactose-inducible promoter, in S. cerevisiae
In the case of B2, the “two-hybrid signal as percent of wild-type Nse5” value in experiment [3] is 40%; in experiment [4] it was 75%; in experiment [5], 18%.
